Test results as given in publication PMC5206904 (DNA repair, 2015).

Molecular target: T1, recombinant ALKBH2 with a streptavidin binding peptide tag (human, UniProt Q6NS38 1-261)
T1 sequence (looked up): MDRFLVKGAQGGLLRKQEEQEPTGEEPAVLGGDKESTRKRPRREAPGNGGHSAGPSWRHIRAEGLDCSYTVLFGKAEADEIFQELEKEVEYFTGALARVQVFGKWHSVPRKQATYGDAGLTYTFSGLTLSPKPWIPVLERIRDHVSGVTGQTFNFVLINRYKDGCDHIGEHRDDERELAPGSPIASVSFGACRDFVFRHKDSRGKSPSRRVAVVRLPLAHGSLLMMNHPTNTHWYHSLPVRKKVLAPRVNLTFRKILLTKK
Assay: pull-down

B1: recombinant PCNA mutant VDK188 (natural protein, UniProt P12004 1-261, looked up)
chain: MFEARLVQGSILKKVLEALKDLINEACWDISSSGVNLQSMDSSHVSLVQLTLRSEGFDTYRCDRNLAMGVNLTSMSKILKCAGNEDIITLRAEDNADTLALVFEAPNQEKVSDYEMKLMDLDVEQLGIPEQEYSCVVKMPSGEFARICRDLSHIGDAVVISCAKDGVKFSASGELGNGNIKLSQTSNAAAEEEAVTIEMNEPVQLTFALRYLNFFTKATPLSSTVTLSMSADVPLVVEYKIADMGHLKYYLAPKIEDEEGS
- binding result: binds
